Biological target: T1, Human C-reactive protein, pentameric (pCRP) (human), P02741
T1 chain: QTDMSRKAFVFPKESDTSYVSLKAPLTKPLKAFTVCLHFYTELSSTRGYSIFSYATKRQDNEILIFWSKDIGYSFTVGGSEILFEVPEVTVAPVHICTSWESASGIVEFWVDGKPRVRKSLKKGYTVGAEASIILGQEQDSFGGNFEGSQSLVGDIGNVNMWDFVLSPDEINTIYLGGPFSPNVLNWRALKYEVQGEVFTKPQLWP
Assay: crystal structure; pCRP at 8 mg/ml in 20 mM Tris, 140 mM NaCl, 2 mM CaCl2, co-crystallised with C10M (1:3 molar ratio pCRP:C10M); hanging drop at 20°C; well buffer 100 mM Tris pH 9, 10% PEG 4000, 50 mM LiCl, 200 mM MgCl2; oligomer seen: pentamer
Conditions: remark: other sources report otherwise

- stoichiometry N: 5
B1: Human C-reactive protein, pentameric (pCRP), P02741 19-224 (natural protein)
chain: T1 chain
